Earlier results as cited in paper PMC7054563.

Molecular target: Glu150 (UniProt position 150, LMANVELIAPL)

Multidrug transporter MdfA, triple mutant E26T/D34M/A150E (Escherichia coli; E26T;D34M;A150E)
pKa: 6.5
